Source: publication PMC9482650, “Quantitative fragmentomics allow affinity mapping of interactomes” (Nature Communications, 2022)

T1: ARHGEF11, O15085
T1 sequence (O15085 42-136, limits assumed, looked up): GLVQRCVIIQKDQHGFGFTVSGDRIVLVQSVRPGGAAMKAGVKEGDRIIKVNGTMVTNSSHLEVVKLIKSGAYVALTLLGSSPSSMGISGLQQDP

T2: GRIP1_5, Q9Y3R0
T2 sequence (Q9Y3R0 568-668, limits assumed, looked up): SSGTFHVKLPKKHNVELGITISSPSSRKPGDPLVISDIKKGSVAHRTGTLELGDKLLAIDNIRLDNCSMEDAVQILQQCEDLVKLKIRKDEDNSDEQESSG

T3: GRIP1_7, Q9Y3R0
T3 sequence (Q9Y3R0 999-1096, limits assumed, looked up): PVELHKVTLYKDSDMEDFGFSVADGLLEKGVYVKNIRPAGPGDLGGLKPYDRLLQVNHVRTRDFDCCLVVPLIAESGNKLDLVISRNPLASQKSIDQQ

T4: LIN7A, O14910
T4 sequence (O14910 103-200, limits assumed, looked up): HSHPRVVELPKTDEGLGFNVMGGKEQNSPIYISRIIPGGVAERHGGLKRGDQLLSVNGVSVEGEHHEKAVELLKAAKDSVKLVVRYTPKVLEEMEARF

T5: MPP6, Q9NZW5
T5 sequence (Q9NZW5 125-219, limits assumed, looked up): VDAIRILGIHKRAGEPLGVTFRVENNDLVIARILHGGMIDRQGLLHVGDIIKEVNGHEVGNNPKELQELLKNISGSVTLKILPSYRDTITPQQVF

T6: MPP7, Q5T2T1
T6 sequence (Q5T2T1 134-230, limits assumed, looked up): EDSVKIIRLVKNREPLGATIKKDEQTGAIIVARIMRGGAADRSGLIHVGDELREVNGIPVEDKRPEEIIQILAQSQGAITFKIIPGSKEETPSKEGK

T7: PCLO, Q9Y6V0
T7 sequence (Q9Y6V0 4491-4600, limits assumed, looked up): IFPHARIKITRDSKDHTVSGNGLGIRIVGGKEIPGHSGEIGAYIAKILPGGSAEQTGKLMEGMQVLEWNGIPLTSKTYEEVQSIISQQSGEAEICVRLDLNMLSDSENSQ

T8: PDZRN3_1, Q9UPQ7
T8 sequence (Q9UPQ7 244-349, limits assumed, looked up): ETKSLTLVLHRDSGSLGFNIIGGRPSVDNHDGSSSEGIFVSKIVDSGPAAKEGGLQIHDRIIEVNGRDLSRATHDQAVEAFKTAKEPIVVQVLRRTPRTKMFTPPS

T9: PTPN13_1, Q12923
T9 sequence (Q12923 1088-1188, limits assumed, looked up): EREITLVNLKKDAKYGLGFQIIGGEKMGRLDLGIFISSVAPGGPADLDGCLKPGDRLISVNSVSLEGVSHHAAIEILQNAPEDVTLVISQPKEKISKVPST

T10: SYNJ2BP, P57105
T10 sequence (P57105 8-110, limits assumed, looked up): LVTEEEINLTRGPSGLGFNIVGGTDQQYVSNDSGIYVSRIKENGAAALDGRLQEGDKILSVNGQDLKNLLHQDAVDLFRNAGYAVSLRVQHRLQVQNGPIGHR


Legend:
Experiment in all cases: holdup assay
Set-up in all cases: key: below the threshold = too weak to quantify, mostly under pKd 3.1 to 4
Conditions in all cases: plain residues with an end cap or a label only (N-terminal biotin on a linker: ado-ado)
[1] = molecular target: AHNAK1, Q09666
Sequence of AHNAK1, Q09666 (Q09666 4-100): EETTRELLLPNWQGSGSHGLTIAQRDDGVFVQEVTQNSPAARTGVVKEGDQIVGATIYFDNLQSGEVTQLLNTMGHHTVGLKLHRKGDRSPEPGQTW

[2] = molecular target: T1, ARHGEF11, O15085
[3] = molecular target: DLG4_2, P78352
Sequence of DLG4_2, P78352 (P78352 155-259): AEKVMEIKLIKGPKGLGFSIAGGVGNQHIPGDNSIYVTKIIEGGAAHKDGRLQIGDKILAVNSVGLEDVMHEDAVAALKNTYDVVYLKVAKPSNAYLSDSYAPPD

[4] = molecular target: FRMPD2_1, Q68DX3
Sequence of FRMPD2_1, Q68DX3 (Q68DX3 770-861): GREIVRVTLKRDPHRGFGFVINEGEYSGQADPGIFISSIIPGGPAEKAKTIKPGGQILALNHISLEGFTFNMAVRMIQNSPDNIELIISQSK

[5] = molecular target: GIPC2, Q8TF65
Sequence of GIPC2, Q8TF65 (Q8TF65 112-203): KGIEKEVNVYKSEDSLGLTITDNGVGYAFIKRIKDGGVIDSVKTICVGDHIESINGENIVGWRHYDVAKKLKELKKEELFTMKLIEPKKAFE

[6] = molecular target: GRASP, Q7Z6J2
Sequence of GRASP, Q7Z6J2 (Q7Z6J2 96-193): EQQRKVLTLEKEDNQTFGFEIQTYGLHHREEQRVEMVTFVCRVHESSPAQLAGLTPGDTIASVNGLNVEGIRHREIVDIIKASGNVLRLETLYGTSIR

[7] = molecular target: GRID2IP_1, A4D2P6
Sequence of GRID2IP_1, A4D2P6 (A4D2P6 1-87): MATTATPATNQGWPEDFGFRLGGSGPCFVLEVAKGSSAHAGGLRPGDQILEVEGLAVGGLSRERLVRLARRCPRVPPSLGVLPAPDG

[8] = molecular target: T2, GRIP1_5, Q9Y3R0
[9] = molecular target: T3, GRIP1_7, Q9Y3R0
[10] = molecular target: GRIP2_3, Q9C0E4
Sequence of GRIP2_3, Q9C0E4 (Q9C0E4 238-339): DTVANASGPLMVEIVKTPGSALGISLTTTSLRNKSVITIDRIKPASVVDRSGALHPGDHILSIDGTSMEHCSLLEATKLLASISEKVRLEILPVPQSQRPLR

[11] = molecular target: GRIP2_6, Q9C0E4
Sequence of GRIP2_6, Q9C0E4 (Q9C0E4 648-740): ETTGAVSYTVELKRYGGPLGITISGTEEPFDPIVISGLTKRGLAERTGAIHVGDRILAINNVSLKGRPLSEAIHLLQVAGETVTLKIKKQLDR

[12] = molecular target: HTRA1, Q92743
Sequence of HTRA1, Q92743 (Q92743 360-477): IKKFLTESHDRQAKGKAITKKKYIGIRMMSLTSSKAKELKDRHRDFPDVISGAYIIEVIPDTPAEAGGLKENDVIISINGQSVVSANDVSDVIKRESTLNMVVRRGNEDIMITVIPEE

[13] = molecular target: Inadl_4, Q8NI35
Sequence of Inadl_4, Q8NI35 (Q8NI35 547-651): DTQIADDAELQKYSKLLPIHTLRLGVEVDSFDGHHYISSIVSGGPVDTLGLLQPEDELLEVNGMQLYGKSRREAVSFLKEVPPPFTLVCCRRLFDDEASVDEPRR

[14] = molecular target: T4, LIN7A, O14910
[15] = molecular target: MAGI1_1, Q96QZ7
Sequence of MAGI1_1, Q96QZ7 (Q96QZ7 1-106): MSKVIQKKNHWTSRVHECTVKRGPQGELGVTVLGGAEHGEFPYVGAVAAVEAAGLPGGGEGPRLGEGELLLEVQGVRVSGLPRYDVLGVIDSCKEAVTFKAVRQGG

[16] = molecular target: MAGI1_2, Q96QZ7
Sequence of MAGI1_2, Q96QZ7 (Q96QZ7 456-580): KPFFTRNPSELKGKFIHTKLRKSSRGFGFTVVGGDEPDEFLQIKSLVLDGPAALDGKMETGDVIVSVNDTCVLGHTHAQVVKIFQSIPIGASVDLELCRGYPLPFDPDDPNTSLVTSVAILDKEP

[17] = molecular target: MAGI2_3, Q86UL8
Sequence of MAGI2_3, Q86UL8 (Q86UL8 600-682): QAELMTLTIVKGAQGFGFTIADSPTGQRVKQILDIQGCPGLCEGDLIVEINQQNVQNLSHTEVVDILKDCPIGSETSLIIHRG

[18] = molecular target: MAGI2_5, Q86UL8
Sequence of MAGI2_5, Q86UL8 (Q86UL8 915-1017): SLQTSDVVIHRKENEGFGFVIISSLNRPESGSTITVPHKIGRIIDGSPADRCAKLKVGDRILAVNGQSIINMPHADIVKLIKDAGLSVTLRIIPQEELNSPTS

[19] = molecular target: MAST2, Q6P0Q8
Sequence of MAST2, Q6P0Q8 (Q6P0Q8 1099-1202): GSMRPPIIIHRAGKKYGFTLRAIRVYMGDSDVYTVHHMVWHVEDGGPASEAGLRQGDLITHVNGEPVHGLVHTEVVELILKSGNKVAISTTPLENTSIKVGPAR

[20] = molecular target: T5, MPP6, Q9NZW5
[21] = molecular target: T6, MPP7, Q5T2T1
[22] = molecular target: NHERF4_2, Q86UT5
Sequence of NHERF4_2, Q86UT5 (Q86UT5 220-308): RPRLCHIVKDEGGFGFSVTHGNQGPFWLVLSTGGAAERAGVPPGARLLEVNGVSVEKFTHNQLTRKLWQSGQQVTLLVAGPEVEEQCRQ

[23] = molecular target: T7, PCLO, Q9Y6V0
[24] = molecular target: T8, PDZRN3_1, Q9UPQ7
[25] = molecular target: T9, PTPN13_1, Q12923
[26] = molecular target: SCRIB_2, Q14160
Sequence of SCRIB_2, Q14160 (Q14160 857-960): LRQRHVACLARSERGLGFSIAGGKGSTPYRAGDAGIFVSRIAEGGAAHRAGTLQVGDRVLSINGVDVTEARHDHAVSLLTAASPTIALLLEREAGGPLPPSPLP

[27] = molecular target: T10, SYNJ2BP, P57105

Binder | pKd [1] | pKd [2] | pKd [3] | pKd [4] | pKd [5] | pKd [6] | pKd [7] | pKd [8] | pKd [9] | pKd [10] | pKd [11] | pKd [12] | pKd [13] | pKd [14] | pKd [15] | pKd [16] | pKd [17] | pKd [18] | pKd [19] | pKd [20] | further results
STYCDYTIEI [FAM71C, Q8NEG0] | below the threshold | 4 | below the threshold | below the threshold | 3.49 | 3.69 | below the threshold | below the threshold | below the threshold | below the threshold | 4.14 | 5.38 | below the threshold | below the threshold | below the threshold | below the threshold | below the threshold | below the threshold | 5.12 | 3.67 | pKd [21]: 4.6; pKd [22]: 3.51; pKd [23]: below the threshold; pKd [24]: below the threshold; pKd [25]: below the threshold; pKd [26]: below the threshold; pKd [27]: below the threshold
RSPVATATSC [DUSP5, Q16690] | below the threshold | below the threshold | below the threshold | below the threshold | 3.6 | below the threshold | below the threshold | below the threshold | below the threshold | below the threshold | below the threshold | below the threshold | below the threshold | below the threshold | below the threshold | below the threshold | below the threshold | below the threshold | 4.22 | below the threshold | pKd [21]: below the threshold; pKd [22]: below the threshold; pKd [23]: below the threshold; pKd [24]: below the threshold; pKd [25]: below the threshold; pKd [26]: below the threshold; pKd [27]: below the threshold

The next lines start with results.

pKd [1] | pKd [2] | pKd [3] | pKd [4] | pKd [5] | pKd [6] | pKd [7] | pKd [8] | pKd [9] | pKd [10] | pKd [11] | pKd [12] | pKd [13] | pKd [14] | pKd [15] | pKd [16] | pKd [17] | pKd [18] | pKd [19] | pKd [20] | Binder | further results
below the threshold | 4.42 | 4.2 | below the threshold | below the threshold | 5.5 | below the threshold | below the threshold | below the threshold | below the threshold | below the threshold | 5.5 | below the threshold | below the threshold | below the threshold | below the threshold | 4.52 | 5.47 | 5.63 | 3.74 | KIEDVEITLV [FCHSD2, O94868] | pKd [21]: below the threshold; pKd [22]: below the threshold; pKd [23]: below the threshold; pKd [24]: below the threshold; pKd [25]: below the threshold; pKd [26]: below the threshold; pKd [27]: 3.82
below the threshold | 4.46 | 4.69 | below the threshold | 4.2 | 4.23 | below the threshold | below the threshold | 4.46 | below the threshold | below the threshold | 5.14 | below the threshold | below the threshold | below the threshold | below the threshold | 4.13 | 4.92 | 5.12 | below the threshold | PLPPEEESWV [GAS2L2, Q8NHY3] | pKd [21]: 3.57; pKd [22]: below the threshold; pKd [23]: below the threshold; pKd [24]: 3.52; pKd [25]: below the threshold; pKd [26]: 4.94; pKd [27]: 4.98
below the threshold | below the threshold | below the threshold | below the threshold | below the threshold | 3.68 | below the threshold | below the threshold | below the threshold | below the threshold | below the threshold | 4.15 | below the threshold | below the threshold | below the threshold | below the threshold | below the threshold | below the threshold | below the threshold | below the threshold | MQILSKPEFI [NPSR1, Q6W5P4] | pKd [21]: below the threshold; pKd [22]: below the threshold; pKd [23]: below the threshold; pKd [24]: below the threshold; pKd [25]: below the threshold; pKd [26]: below the threshold; pKd [27]: below the threshold
